Holding throughout (experiment): activation reporter or marker
The target in assay [1] is T1, HA69 peptide on HLA DQB1*06:02/DQA1*01:02 (DQ0602) (human).
T1 peptide: AMERNAGSGIIISDT

The target of assay [2] is T2, hemagglutinin (HA) of pandemic 2009 H1N1 (pHA, HA69) peptide on HLA-DQA1*01:02 / HLA-DQB1*06:02 (human).
T2 peptide: AMERNAGSGIIISDT

The target of assay [3] is T3, hemagglutinin (HA) of pandemic 2009 H1N1 (pHA, HA69) peptide on HLA-DQA1*01:02 / HLA-DQB1*06:02 (human).
T3 peptide: AMERNAGSGIIISDT

Like-named read-outs stand apart in the source and are kept apart here.

B1: TCR43 (TCR)
alpha TRAV13-1 TRAJ43 CDR3: CAASDNDMRF
beta TRBV4-2 TRBJ1-2 CDR3: CASSQETQGRNYGYTF
For B1, the binding result in assay [1] and in assay [2] was “recognises” in each case.

B2: TCR CAGSPSQGGSEKLVF / CSARPLGTSGRDEQFF (TCR)
alpha TRAV35 TRAJ57 CDR3: CAGSPSQGGSEKLVF
beta TRBV20-1 TRBJ2-1 CDR3: CSARPLGTSGRDEQFF
Take B2: the binding result in assay [3] and in assay [1] was “no recognition” throughout.

B3: TCR275 (TCR)
alpha TRAV13-1 TRAJ43 CDR3: CAANNNDMRF
beta TRBV4-2 TRBJ1-2 CDR3: CASSQETQGRNYGYTF
B3: the binding result in assay [1] and in assay [2] was “recognises” each time.

B4: TCR CALSPDSWGKLQF / CASSTRAPTRTGEKLFF (TCR)
alpha TRAV6 TRAJ24 CDR3: CALSPDSWGKLQF
beta TRBV7-9 TRBJ1-4 CDR3: CASSTRAPTRTGEKLFF
As for B4, the binding result in assay [3] is given as “no recognition”.

Values taken from paper PMC9371724 (2022).
